Source: PMC7968734

Biological target: replication protein A (RPA) heterotrimer, full-length (UniProt P15927)
Experiment: FluorIA

| RFU (NC, no inhibitor) [RFU] | percent inhibition of EGFP-RAD52 binding at a molar ratio of 1:1 [%] | Binder |
| --- | --- | --- |
| 17100 |  | Full-length RAD52 tagged with 6X-His enhanced green fluorescent protein (EGFP-RAD52) (natural protein) MSGTEEAILGGRDSHPAAGGGSVLCFGQCQYTAEEYQAIQKALRQRLGPEYISSRMAGGGQKVCYIEGHRVINLANEMFGYNGWAHSITQQNVDFVDLNNGKFYVGVCAFVRVQLKDGSYHEDVGYGVSEGLKSKALSLEKARKEAVTDGLKRALRSFGNALGNCILDKDYLRSLNKLPRQLPLEVDLTKAKRQDLEPSVEEARYNSCRPNMALGHPQLQQVTSPSRPSHAVIPADQDCSSRSLSSSAVESEATHQRKLRQKQLQQQFRERMEKQQVRVSTPSAEKSEAAPPAPPVTHSTPVTVSEPLLEKDFLAGVTQELIKTLEDNSEKWAVTPDAGDGVVKPSSRADPAQTSDTLALNNQMVTQNRTPHSVCHQKPQAKSGSWDLQTYSADQRTTGNWESHRKSQDMKKRKYDPS |
|  | 50 | RAD52(1-303) (domain or fragment) MSGTEEAILGGRDSHPAAGGGSVLCFGQCQYTAEEYQAIQKALRQRLGPEYISSRMAGGGQKVCYIEGHRVINLANEMFGYNGWAHSITQQNVDFVDLNNGKFYVGVCAFVRVQLKDGSYHEDVGYGVSEGLKSKALSLEKARKEAVTDGLKRALRSFGNALGNCILDKDYLRSLNKLPRQLPLEVDLTKAKRQDLEPSVEEARYNSCRPNMALGHPQLQQVTSPSRPSHAVIPADQDCSSRSLSSSAVESEATHQRKLRQKQLQQQFRERMEKQQVRVSTPSAEKSEAAPPAPPVTHSTPVT |
